Measurements from publication PMC5702047.

Target: TRC40 (rabbit (endogenous in reticulocyte lysate))

## cytosolic domain of the WRB receptor (WRBcc) (domain or fragment)
  reduction of the integration of Sec61βOPG2 and RAMP4OPG into RMs (N-glycosylation) in vitro, post-translational, with an excess of WRBcc: 50%
